Test results: US20230212319A1, “NOVEL ANTIGEN BINDING DOMAINS AND SYNTHETIC ANTIGEN RECEPTORS INCORPORATING THE SAME” (University of Southern California, priority 2020, published 2023)

Columns and labels:
Assay type in all cases: cell-based
L363 cells = experiment: JNG assay, co-culture with L363 cells; conditions: co-culture with L363
How it was run: (§1)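 Read-out is NFAT-driven GFP measured by flow cytometry after ~4–18 h co-culture of SAR-expressing JNG cells with target cells (E:T about 1:2). SARs were introduced by lentiviral spinfection and selected with puromycin or blasticidin when possible; scores (+/- to 5+ ≈ 5–50% GFP+) are relative to parental JNG cells.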

RS;411 = experiment: JNG assay, co-culture with RS;411 cells; conditions: co-culture with RS411
Experimental: Cellular supernatant is collected and assayed for the induction of cytokines (e.g., IL2).
JNG (Jurkat cells expressing EGFP under an NFAT promoter) were infected with lentiviral vectors encoding different single chain and multi-chain SARs by spinfection in the presence of 8 µg/ml of Polybrene® (Sigma, Catalog no. H9268). The Jurkat-NFAT-GFP cells are engineered in such a way that the IL-2 promoter, which carries NFAT binding sites, is cloned upstream of the GFP gene. These cells have been used to study signaling via TCR and CAR. The different SARs were stably expressed in Jurkat NFAT-GFP cells by lentiviral mediated gene transfer, followed by selection with puromycin or blasticidin. No drug selection was used in case the construct lacked an antibiotic resistance gene. The SAR-expressing Jurkat-NFAT-GFP cells were cocultured with the target cells at E:T ratio of approximately 1:2 for approximately 4 hours to 18 hours. When the interaction between SIRs and their target antigen results in activation of the NFAT pathway, GFP expression is induced. […] GFP expression was monitored by FACS analysis. The Jurkat-NFAT-GFP (parental) cells were used as control. The structure of different constructs can be determined based on their names. […] The sequence of the other constructs in the table can be similarly determined from their names and by referring to the different Tables of this disclosure that provide the names and SEQ ID NO of the different modules. Alternatively, the composition and modular architecture of the different SAR constructs can be determined from their sequences by bioinformatics tools, including using nucleic acid and amino acids homology searches. A SAR is considered positive in the assay in case the SAR expressing Jurkat-NFAT-GFP cells show greater % GFP positive cells when cultured with the target cell line as compared to parental Jurkat-NFAT-GFP cells. […] In general, the number +/-, +, 2+, 3+, 4+, 5+ refer to approximately 5%, 10%, 20%, 30%, 40% and 50% GFP positive cells. The % of GFP induction in the above assay is dependent not only the relative strength of the SAR but also, among other factors, on the relative level of expression of the SAR in the JNG cells and the relative level of expression of the target antigen in the target cell line. To control for the difference in gene transduction efficiency of the different SAR constructs, the experiment was conducted with JNG cells transduced with SAR constructs co-expressing a drug resistance gene (e.g., puromycin or PAC) followed by drug selection to generate a stable population of SAR-expressing cells. It is to be noted that the drug resistance gene (e.g., PAC) in the SAR constructs is optional and in vivo studies were conducted with SAR constructs lacking the PAC gene.

RAJI cells = experiment: JNG assay, co-culture with RAJI cells; conditions: JNG cells expressing construct, co-culture with Raji
How it was run: as §1

B1: 22012 (protein)
chain: MDWIWRILFLVGAATGAHSQLQLQESGPGLVKPSETLSLTCTVSGGSVSSSSYYWGWIRQPPGKRLELIGSIYYGGSTYFNPSLKTRVTISVDTSKNQFSLKLSSVTAADTAVYYCAGGDTYGPVGQWPSDYRGQGTLVTVSSLEDLKNVFPPEVAVFEPSEAEISHTQKATLVCLATGFYPDHVELSWWVNGKEVHSGVCTDPQPLKEQPALNDSRYCLSSRLRVSATFWQNPRNHFRCQVQFYGLSENDEWTQDRAKPVTQIVSAEAWGRADCGFTSESYQQGVLSATILYEILLGKATLYAVLVSALVLMAMVKRKDSRGRAKRSGSGATNFSLLKQAGDVEENPGPTSMDWIWRILFLVGAATGAHSFEVQLLESGGGLIQPGGSLRLSCAASGFTFSSHAMTWVRQAPGKGLEWVSAISGSGDYTHYADSVKGRFTISRDNSKNTVYLQMNSLRAEDSAVYYCAKDEDGGSLLGHRGQGTLVTVSSTRIQNPDPAVYQLRDSKSSDKSVCLFTDFDSQTNVSQSKDSDVYITDKCVLDMRSMDFKSNSAVAWSNKSDFACANAFNNSIIPEDTFFPSPESSCDVKLVEKSFETDTNLNFQNLSVIGFRILLLKVAGFNLLMTLRLWSSRAKRSGSGVKQTLNFDLLKLAGDVESNPGPSRGHMTEYKPTVRLATRDDVPRAVRTLAAAFADYPATRHTVDPDRHIERVTELQELFLTRVGLDIGKVWVADDGAAVAVWTTPESVEAGAVFAEIGPRMAELSGSRLAAQQQMEGLLAPHRPKEPAWFLATVGVSPDHQGKGLGSAVVLPGVEAAERAGVPAFLETSAPRNLPFYERLGFTVTADVEVPEGPRTWCMTRKPGA
Q: With B1 as the molecule, how does the “NFAT-GFP ASSAY: L363” value (L363 cells) read?
A: + (refer to approximately 5%, 10%, 20%, 30%, 40% and 50% GFP positive cells)

Q: And the “NFAT-GFP ASSAY: RS411” value (RS;411)?
A: +/- (refer to approximately 5%, 10%, 20%, 30%, 40% and 50% GFP positive cells)

B2: 22139 (protein)
chain: MALPVTALLLPLALLLHAARPACEVQLLESGGGLIQPGGSLRLSCAASGFTFSSHAMTWVRQAPGKGLEWVSAISGSGDYTHYADSVKGRFTISRDNSKNTVYLQMNSLRAEDSAVYYCAKDEDGGSLLGHRGQGTLVTVSSGTGGGGSGGGGSGGGGSEFDIQMTQSPSSLSASVGDRVTITCKASDHINNWLAWYQQKPGQAPKLLIYGATTLETGVPSRFSGSGSGTDYTLTISSLQPEDFATYYCQQSWNTPWTFGQGTKLEIKRLEADVSPKPTIFLPSIAETKLQKAGTYLCLLEKFFPDVIKIHWQEKKSNTILGSQEGNTMKTNDTYMKFSWLTVPEKSLDKEHRCIVRHENNKNGVDQEIIFPPIKTDVITMDPKDNCSKDANDTLLLQLTNTSAYYMYLLLLLKSVVYFAIITCCLLRRTAFCCNGEKSRAKRSGSGATNFSLLKQAGDVEENPGPTSMDWIWRILFLVGAATGAHSGPQVQLQESGGGLAQAGGSLRLSCAASGRTFSMGWFRQAPGKEREFVAAITYSGGSPYYASSVRGRFTISRDNAKNTVYLQMNSLKPEDTAVYYCAANPTYGSDWNAENWGQGTQVTVSSGSGGGGSGGGGSGGGGSFEQVQLQQPGAELVKPGASVKMSCKASGYAFSSYWINWMKQKPGQGLEWIGQIYPGDGDTNYNGKFKGRATLTADTSSSTAYMQLSSLTSEDSAVYFCARSITTVVGCAMDYWGQGTSVTVSSTRPHTKPSVFVMKNGTNVACLVKEFYPKDIRINLVSSKKITEFDPAIVISPSGKYNAVKLGKYEDSNSVTCSVQHDNKTVHSTDFEVKTDSTDHVKPKETENTKQPSKSCHKPKAIVHTEKVNMMSLTVLGLRMLFAKTVAVNFLLTAKLFFLRAKRSGSGVKQTLNFDLLKLAGDVESNPGPSRGHMTEYKPTVRLATRDDVPRAVRTLAAAFADYPATRHTVDPDRHIERVTELQELFLTRVGLDIGKVWVADDGAAVAVWTTPESVEAGAVFAEIGPRMAELSGSRLAAQQQMEGLLAPHRPKEPAWFLATVGVSPDHQGKGLGSAVVLPGVEAAERAGVPAFLETSAPRNLPFYERLGFTVTADVEVPEGPRTWCMTRKPGA
Q: Which “NFAT-GFP ASSAY: Raji” value (RAJI cells) does the source give for B2 here?
A: 2+ (refer to approximately 5%, 10%, 20%, 30%, 40% and 50% GFP positive cells)

Q: And the “NFAT-GFP ASSAY: RS411” value (RS;411)?
A: 2+ (refer to approximately 5%, 10%, 20%, 30%, 40% and 50% GFP positive cells)

B3: 22141 (protein)
chain: MALPVTALLLPLALLLHAARPACEVQLLESGGGLIQPGGSLRLSCAASGFTFSSHAMTWVRQAPGKGLEWVSAISGSGDYTHYADSVKGRFTISRDNSKNTVYLQMNSLRAEDSAVYYCAKDEDGGSLLGHRGQGTLVTVSSGTGGGGSGGGGSGGGGSEFDIQMTQSPSSLSASVGDRVTITCKASDHINNWLAWYQQKPGQAPKLLIYGATTLETGVPSRFSGSGSGTDYTLTISSLQPEDFATYYCQQSWNTPWTFGQGTKLEIKRLEGQPKANPTVTLFPPSSEELQANKATLVCLISDFYPGAVTVAWKADGSPVKAGVETTKPSKQSNNKYAASSYLSLTPEQWKSHRSYSCQVTHEGSTVEKTVAPTECSPIKTDVITMDPKDNCSKDANDTLLLQLTNTSAYYMYLLLLLKSVVYFAIITCCLLRRTAFCCNGEKSRAKRSGSGATNFSLLKQAGDVEENPGPTSATMDWIWRILFLVGAATGAHSGPQVQLQESGGGLAQAGGSLRLSCAASGRTFSMGWFRQAPGKEREFVAAITYSGGSPYYASSVRGRFTISRDNAKNTVYLQMNSLKPEDTAVYYCAANPTYGSDWNAENWGQGTQVTVSSGSGGGGSGGGGSGGGGSFEQVQLQQPGAELVKPGASVKMSCKASGYAFSSYWINWMKQKPGQGLEWIGQIYPGDGDTNYNGKFKGRATLTADTSSSTAYMQLSSLTSEDSAVYFCARSITTVVGCAMDYWGQGTSVTVSSTRASTKGPSVFPLAPSSKSTSGGTAALGCLVKDYFPEPVTVSWNSGALTSGVHTFPAVLQSSGLYSLSSVVTVPSSSLGTQTYICNVNHKPSNTKVDKRVEPKSCEVKTDSTDHVKPKETENTKQPSKSCHKPKAIVHTEKVNMMSLTVLGLRMLFAKTVAVNFLLTAKLFFLRAKRSGSGVKQTLNFDLLKLAGDVESNPGPSRAHMTEYKPTVRLATRDDVPRAVRTLAAAFADYPATRHTVDPDRHIERVTELQELFLTRVGLDIGKVWVADDGAAVAVWTTPESVEAGAVFAEIGPRMAELSGSRLAAQQQMEGLLAPHRPKEPAWFLATVGVSPDHQGKGLGSAVVLPGVEAAERAGVPAFLETSAPRNLPFYERLGFTVTADVEVPEGPRTWCMTRKPGA
Q: With B3 as the molecule, how does the “NFAT-GFP ASSAY: Raji” value (RAJI cells) read?
A: 4+ (refer to approximately 5%, 10%, 20%, 30%, 40% and 50% GFP positive cells)

Q: And the “NFAT-GFP ASSAY: RS411” value (RS;411)?
A: 4+ (refer to approximately 5%, 10%, 20%, 30%, 40% and 50% GFP positive cells)

B4: 22106 (protein)
chain: MALPVTALLLPLALLLHAARPDIQMTQSPSSLSASVGDRVTITCKASDHINNWLAWYQQKPGQAPKLLIYGATTLETGVPSRFSGSGSGTDYTLTISSLQPEDFATYYCQQSWNTPWTFGQGTKLEIKRLEDLKNVFPPEVAVFEPSKAEIAHTQKATLVCLATGFYPDHVELSWWVNGKEVHSGVCTDPQPLKEQPALNDSRYCLSSRLRVSATFWQNPRNHFRCQVQFYGLSENDEWTQDRAKPVTQIVSAEAWGRADCGITSASYHQGVLSATILYEILLGKATLYAVLVSALVLMAMVKRKDSRGRAKRSGSGATNFSLLKQAGDVEENPGPTSATMDWIWRILFLVGAATGAHSGPQVQLQESGGGLAQAGGSLRLSCAASGRTFSMGWFRQAPGKEREFVAAITYSGGSPYYASSVRGRFTISRDNAKNTVYLQMNSLKPEDTAVYYCAANPTYGSDWNAENWGQGTQVTVSSGSGGGGSGGGGSGGGGSFEQVQLQQPGAELVKPGASVKMSCKASGYAFSSYWINWMKQKPGQGLEWIGQIYPGDGDTNYNGKFKGRATLTADTSSSTAYMQLSSLTSEDSAVYFCARSITTVVGCAMDYWGQGTSVTVSSTRIQNPDPAVYQLRDSKSSDKSVCLFTDFDSQTNVSQSKDSDVYITDKCVLDMRSMDFKSNSAVAWSNKSDFACANAFNNSIIPEDTFFPSSDVPCDVKLVEKSFETDTNLNFQNLSVIGFRILLLKVAGFNLLMTLRLWSSRAKRSGSGVKQTLNFDLLKLAGDVESNPGPSRGHMTEYKPTVRLATRDDVPRAVRTLAAAFADYPATRHTVDPDRHIERVTELQELFLTRVGLDIGKVWVADDGAAVAVWTTPESVEAGAVFAEIGPRMAELSGSRLAAQQQMEGLLAPHRPKEPAWFLATVGVSPDHQGKGLGSAVVLPGVEAAERAGVPAFLETSAPRNLPFYERLGFTVTADVEVPEGPRTWCMTRKPGA
Q: B4 was tested. Which “NFAT-GFP ASSAY: Raji” value (RAJI cells) did it give?
A: 5+ (refer to approximately 5%, 10%, 20%, 30%, 40% and 50% GFP positive cells)

Q: What about the “NFAT-GFP ASSAY: RS411” value (RS;411) of the same molecule?
A: + (refer to approximately 5%, 10%, 20%, 30%, 40% and 50% GFP positive cells)
